Laboratory results reported in US20200399385A1 (Bristol-Myers Squibb, published 2020).
Where “and” joins values, the source holds several entries; their conditions need not be identical. Equal values may be shown once.

T1: human OX40 on cells (human, UniProt P43489 29-277)
T1 construct: also called hOX40-293 cells; hOX40-HT1080
T1 sequence: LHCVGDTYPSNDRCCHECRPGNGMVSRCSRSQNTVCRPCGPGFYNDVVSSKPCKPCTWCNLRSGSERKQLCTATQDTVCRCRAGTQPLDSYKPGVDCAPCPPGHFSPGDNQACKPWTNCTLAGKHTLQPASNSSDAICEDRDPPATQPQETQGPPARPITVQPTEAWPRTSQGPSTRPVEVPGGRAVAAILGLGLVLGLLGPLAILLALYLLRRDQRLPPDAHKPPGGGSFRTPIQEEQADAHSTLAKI

T2: his-tagged soluble human OX40 (huOX40-6xhis) (human, UniProt P43489 29-214)
T2 construct: made in-house; also called Human-OX40-6XHIS; hOX40; not shown: hexahistidine tag
T2 sequence: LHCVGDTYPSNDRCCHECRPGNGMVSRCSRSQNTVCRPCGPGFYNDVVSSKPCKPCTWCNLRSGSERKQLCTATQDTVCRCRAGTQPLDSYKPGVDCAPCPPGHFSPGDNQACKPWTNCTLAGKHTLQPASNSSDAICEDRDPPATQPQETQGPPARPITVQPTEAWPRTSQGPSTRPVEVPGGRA

T3: cynomolgus OX40 on cells (cynomolgus, UniProt P43489 29-277 (human entry))
T3 construct: also called cynoOX40-CHO
T3 chain: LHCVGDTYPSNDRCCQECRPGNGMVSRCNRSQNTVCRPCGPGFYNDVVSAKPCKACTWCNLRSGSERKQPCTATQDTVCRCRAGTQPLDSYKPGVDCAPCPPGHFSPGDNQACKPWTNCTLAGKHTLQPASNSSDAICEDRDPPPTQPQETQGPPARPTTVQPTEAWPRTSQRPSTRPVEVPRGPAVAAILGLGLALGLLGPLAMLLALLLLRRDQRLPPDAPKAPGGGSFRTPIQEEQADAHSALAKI

B1: 18E9 (antibody, V domains shown)
VH: EVQLVQSGGGLVHPGGSLRLSCAHSGFTFTSSAMHWVRQAPGKGLEWISAIGTGGDTYYADSVKGRFTISRDNAKNSLYLQINSLRAEDMAVYYCARDFYDILTGIFDYWGQGTLVTVSS
VL: DIQMTQSPSSVSASVGDRVTITCRASQGISSWLAWYQHKPGKAPKLLIYAASSLQSGVPSRFSGSGSGTDFTLTISSLQPEDFATYYCQQANSFPSTFGQGTKVEIK
notes: human mAb from hybridoma; also called 18E9.G5.H4; 18E9.G5
B2: 20B3 (antibody, V domains shown)
VH: EVQLVESGGGLVQPGGSLRLSCAASGFTFSSYDMHWVRQTTGKGLEWVSVIGTAGDTYYPGSVKGRFTISRENAKNSLYLQMNSLRAGDTAVYYCARGGMGNYFDYWGQGTLVTVSS
VL: EIVLTQSPATLSLSPGERATLSCRASQSVSSYLAWYQQKPGQAPRLLIYDASNRATGIPARFSGSGSGTDFTLTISSLEPEDFAVYYCQQRSNWPLTFGGGTKVEIK
notes: also called 20B3.G12.A2; 20B3.G2
B3: OX40.16 (antibody, human IgG1, kappa, V domains shown)
VH: EVQLVQSGGGLVQPGGSLRLSCAGSGFTFSSYAMYWVRQAPGKGLEWVSAIDTDGGTFYADSVRGRFTISRDNAKNSLYLQMNSLRAEDTAVYFCARLGEGYFFDYWGQGTLVTVSS
VL: EIVLTQSPATLSLSPGERATLSCRASQSVSSYLAWYQQKPGQAPRLLIYDASNRATGIPARFSGSGSGTDFTLTISSLEPEDFAVYYCQQRSNWPPTFGGGTKVEIKR
B4: 20C1 (antibody, V domains shown)
VH: EAQLVQSGGGLVHPGGSLRLSCADSGFTFSSYAMYWVRQAPGKGLEWVSAIDTDGGTFYADSVRGRFTISRDNAKNSLYLQMNGLRAEDMAVYFCARLGEGYFFDYWGQGTLVTVSS
VL: EIVLTQSPATLSLSPGERATLSCRASQSVSSYLAWYQQKPGQAPRLLIYDASNRATGIPARFSGSGSGTDFTLTISSLEPEDFAVYYCQQRSNWPPTFGGGTKVEIK
notes: also called 20C1.F2.D1; 20C1.F2
B5: OX40.20 (antibody, human IgG1, kappa, V domains shown)
VH: EVQLVQSGGGLVQPGGSLRLSCAGSGFTFSSYAMYWVRQAPGKGLEWVSAIDTSGGTFYADSVRGRFTISRDNAKNSLYLQMNSLRAEDTAVYFCARLGEGYFFDYWGQGTLVTVSS
VL: EIVLTQSPATLSLSPGERATLSCRASQSVSSYLAWYQQKPGQAPRLLIYDASNRATGIPARFSGSGSGTDFTLTISSLEPEDFAVYYCQQRSNWPPTFGGGTKVEIKR

Legend:
[1] = target: T1, human OX40 on cells; assay: FACS, blocking of OX40L-His (0.2 µg/mL) binding to hOX40-293 cells
Method: Briefly, 293 cells stably transfected with human OX40 were first pre-incubated with varying concentrations of anti-OX40 antibodies. […] The fluorescence intensity of the staining was measured using a FACSCanto II flow cytometer (Becton Dickinson).

[2] = target: T2, his-tagged soluble human OX40 …; assay: SPR, mAb captured on anti-human CH1, OX40-6XHIS analyte, 1:1 fit
Method: The affinity of several OX40 antibodies for soluble human OX40 was tested by SPR analysis. […] Human-OX40-6XHIS antigen in either a single concentration of 400 nM or a 1:2 serial dilution from 400 nM was used. Experiments were carried out on BIACORE® T200 or BIACORE® 3000 SPR instruments. Data was fit to a 1:1 model.

[3] = target: T1, human OX40 on cells; assay: cell-based or functional assay
[4] = target: T1, human OX40 on cells; assay: FACS, activated human T cells; mean ± SD, n=2
Method: (§1) Cells were activated for several days before the binding assay in order to induce OX40 expression. Briefly, PBMCs were cultured for three or four days with magnetic beads coated with anti-human CD3 plus anti-human CD28, in the presence of recombinant human IL-2. On the day of the assay, the beads were removed and the cells stained with a titration of each anti-OX40 antibody. Bound antibodies were detected with a fluorescently conjugated anti-human IgG polyclonal secondary antibody, and the cells were co-stained for CD4 and CD25 to detect activated CD4 T cells. The fluorescence intensity of the staining was measured using a FACSCanto II flow cytometer (Becton Dickinson). The geometric mean fluorescence intensity (GMFI) or median fluorescence intensity (MedFI) of anti-OX40 antibody staining was calculated for the CD4+CD25+ population (FACSDiva software). EC₅₀s for antibody binding were calculated using GraphPad Prism software.

[5] = target: T3, cynomolgus OX40 on cells; assay: FACS, activated cyno T cells; mean ± SD, n=4; mean ± SD of n=4 experiments (Table 8), not the single experiment of FIGS. 12A and 12B
Method: (§2) Briefly, cells were activated for several days before the binding assay in order to induce OX40 expression. Total leukocytes were isolated from cynomolgus macaque peripheral blood by lysis of red blood cells using an ammonium chloride buffer. The leukocytes were then cultured for four to five days with in flasks pre-coated with anti-human CD3 plus anti-human CD28 antibodies that cross-react with cynomolgus macaque, in the presence of recombinant human IL-2, in order to expand and activate T cells. On the day of the assay, the cells were harvested and stained with a titration of each anti-OX40 antibody. Bound antibodies were detected with a fluorescently conjugated anti-human IgG polyclonal secondary antibody, and the cells were co-stained for CD4 and CD25 to detect activated CD4 T cells. The fluorescence intensity of the staining was measured using a FACSCanto II flow cytometer (Becton Dickinson). The geometric mean fluorescence intensity (GMFI) or median fluorescence intensity (MedFI) of anti-OX40 antibody staining was calculated for the CD4+CD25+ population (FACSDiva software). Dose-response curves were generated and EC50s for antibody binding were calculated using GraphPad Prism software.

[6] = target: T1, human OX40 on cells; assay: FACS competition on hOX40-293 cells: unlabeled antibody first, then PE-labeled L106 (2.5 ug/mL per the text)
Method: Briefly, 293 cells stably transfected with human OX40 were first incubated with varying concentrations of unlabeled anti-OX40 antibodies. […] The fluorescence intensity of the staining was measured using a FACSCanto II flow cytometer (Becton Dickinson).

[7] = target: T3, cynomolgus OX40 on cells; assay: FACS, activated cyno CD4 T cells
Method: as §2
The same experiment was performed with anti-OX40 antibodies with variable region substitutions.

[8] = target: T1, human OX40 on cells; assay: FACS competition on HT1080-hOX40 cells against APC-OX40.1 (FL2 MFI); the table gives no unit, axis 'Ab conc nM'
Method: (§3) This experiment was performed to test the cross-blocking properties of various anti-OX40 antibodies to assess binding specificities. […] Cells were washed and if necessary further incubated in the presence of streptavidin-APC conjugate under the same conditions. After the final wash, cells were analyzed on a FACSCanto flow cytometer (BD Bioscience, San Jose, Calif.). Mean fluorescence intensity (MFI) signal was proportional to bound conjugated antibody.

[9] = target: T1, human OX40 on cells; assay: FACS competition on hOX40-293 cells against biotin-OX40.4 (spike biotOX.4 @ 0.4 ug/mL, streptavidin-APC); partial inhibition, FL4-MFI falls from about 12700 to about 6000; the table gives no unit, axis in nM
Method: as §3

[10] = target: T3, cynomolgus OX40 on cells; assay: FACS, activated cyno T cells; mean ± SD, n=4
Method: as §2

[11] = target: T1, human OX40 on cells; assay: FACS competition on hOX40-293 cells against biotin-OX40.5 (spike biotOX.5 @ 0.4 ug/mL, streptavidin-APC); FL4-MFI falls from about 8700 to about 2900; the table gives no unit, axis in nM
Method: as §3

[12] = target: T1, human OX40 on cells; assay: FACS, activated human T cells; mean ± SD, n=3
Method: as §1

[13] = target: T1, human OX40 on cells; assay: FACS, activated human T cells; mean ± SD, n=5
[14] = target: T3, cynomolgus OX40 on cells; assay: FACS, activated cyno T cells; mean ± SD, n=3
Method: as §2

[15] = target: T1, human OX40 on cells; assay: cell-based or functional assay; remark: listed apart in the source
[16] = target: T1, human OX40 on cells; assay: FACS competition on hOX40-293 cells against biotin-OX40.4 (spike biotOX.4 @ 0.4 ug/mL, streptavidin-APC); partial inhibition, FL4-MFI falls from about 12700 to about 8800 at about 130 nM; the table gives no unit, axis in nM
Method: as §3

[17] = target: T1, human OX40 on cells; assay: FACS competition on hOX40-293 cells against biotin-OX40.5 (spike biotOX.5 @ 0.4 ug/mL, streptavidin-APC); FL4-MFI falls from about 8700 to about 3800; the table gives no unit, axis in nM
Method: as §3

[18] = target: T1, human OX40 on cells; assay: immunohistochemistry, HT1080/huOX40 cells
Source text: Fresh, frozen and/or OCT-embedded human tissues were purchased from multiple commercial tissue networks/vendors (Asterand Inc. Detroit, Mich.; Cooperative Human Tissue Network, Philadelphia, Pa.; ProteoGenex Inc, Culver City, Calif.). […] A nonspecific fluoresceinated human IgG1 was used as isotype control antibody. HT1080 cells stably expressing human OX40 (HT1080/huOX40) and hyperplasic human tonsil tissue sections were used as positive control cells and tissues. […] Stained slides were evaluated under a light microscope.

Binder | EC50 [1] | Kd [2] | koff [2] | kon [2] | Proliferation EC50, CD4 T cells + CHO-CD3-CD32A [3] | EC50 [7] | EC50 [10] | EC50 [12] | other results
B1 | 0.48 nM | 2.04 nM | 0.000139 s⁻¹ | 68300 M⁻¹ s⁻¹ | 0.01 nM | 1 to 1.5 nM | – | – | EC50 [4]: 0.22 nM; EC50 [5]: 41.7 nM; IC50 (read off the curve) [6]: ~1 µg/mL
B2 | 0.93 nM | 3.71 nM | 0.000201 s⁻¹ | 54200 M⁻¹ s⁻¹ | 0.008 nM | 1.4 nM and 1 nM to 1.5 nM (2×) | 1.18 nM | 0.34 nM | IC50 [8]: 1.17 nM; EC50 [9]: 3.86 nM; EC50 [11]: 4.54 nM
B3 | – | – | – | – | 0.017 nM | – | – | – | IFNγ EC50, CD4 T cells + CHO-CD3-CD32A [3]: 0.044 nM; EC50 [13]: 0.06 nM; EC50 [14]: 0.06 nM; EC50 (NK92 cell-mediated ADCC, calcein release) [15]: 0.004 µg/mL
B4 | 0.34 nM | 3.22 nM | 0.000209 s⁻¹ | 64800 M⁻¹ s⁻¹ | 0.008 nM | 0.068 nM | 0.17 nM | 0.1 nM | EC50 [16]: 12.1 nM; EC50 [17]: 6.13 nM; IL-2 EC50, SEB PBMC, soluble crosslinker [15]: 1.3 to 2 nM
B5 | – | – | – | – | – | – | – | – | binding result [18]: binds
